Starred links: 1 amine or outer side, 2 acyl side, 3 side chain; linkers in the order of their positions; H or OH if unused. Positions of bridges follow the written chain, without caps; N, C: chain ends. Non-standard residues stand in square brackets, D forms with d. Primed or numbered codes have the meaning given here. *: point of attachment. (SO2MorphCH2)TriAzDap = (S)-2-amino-3-(4-((1,1-dioxidothiomorpholino)methyl)-1H-1,2,3-triazol-1-yl)propanoic acid, O=C([C@H](Cn1cc(CN2CCS(=O)(=O)CC2)nn1)N[*:1])[*:2]; (CH2Ppz)TriAzDap = (S)-2-amino-3-(4-(piperazin-1-ylmethyl)-1H-1,2,3-triazol-1-yl)propanoic acid, O=C([C@H](Cn1cc(CN2CCN([*:3])CC2)nn1)N[*:1])[*:2]; PyrS2(3) = (S)-3-amino-1-((pent-4-en-1-yloxy)carbonyl)pyrrolidine-3-carboxylic acid, stapling residue, C=CCCCOC(=O)N1CC[C@@](N[*:1])(C(=O)[*:2])C1; PyrS2″ = (S)-3-amino-1-((pent-4-en-1-yloxy)carbonyl)pyrrolidine-3-carboxylic acid (stapling residue), C=CCCCOC(=O)N1CC[C@@](N[*:1])(C(=O)[*:2])C1; (CH2NMe2)TriAzDap = (S)-2-amino-3-(4-((dimethylamino)methyl)-1H-1,2,3-triazol-1-yl)propanoic acid, CN(C)Cc1cn(C[C@H](N[*:1])C(=O)[*:2])nn1; (MorphCH2)TriAzDap = (S)-2-amino-3-(4-(morpholinomethyl)-1H-1,2,3-triazol-1-yl)propanoic acid, O=C([C@H](Cn1cc(CN2CCOCC2)nn1)N[*:1])[*:2]; B5(18) = 2,2-bis(4-pentenyl)glycine (2-amino-2-(pent-4-en-1-yl)hept-6-enoic acid), stitching residue, C=CCCCC(CCCC=C)(N[*:1])C(=O)[*:2]; B5(4) = 2,2-bis(4-pentenyl)glycine = 2-amino-2-(pent-4-en-1-yl)hept-6-enoic acid (stitching residue), C=CCCCC(CCCC=C)(N[*:1])C(=O)[*:2]; B5(5) = 2,2-bis(4-pentenyl)glycine, 2-amino-2-(pent-4-en-1-yl)hept-6-enoic acid (stitching residue), C=CCCCC(CCCC=C)(N[*:1])C(=O)[*:2]; TfeGA = (S)-2-amino-3-((carboxymethyl)(2,2,2-trifluoroethyl)amino)propanoic acid, O=C([C@H](CN(CC(=O)[*:3])CC(F)(F)F)N[*:1])[*:2]; PyrS2 = (S)-3-amino-1-((pent-4-en-1-yloxy)carbonyl)pyrrolidine-3-carboxylic acid, C=CCCCOC(=O)N1CC[C@@](N[*:1])(C(=O)[*:2])C1; B5(19) = 2-amino-2-(pent-4-en-1-yl)hept-6-enoic acid (bis(4-pentenyl)glycine), C=CCCCC(CCCC=C)(N[*:1])C(=O)[*:2]; B5(3) = 2,2-bis(4-pentenyl)glycine (stitching residue), C=CCCCC(CCCC=C)(N[*:1])C(=O)[*:2]; B5 = 2-amino-2-(pent-4-en-1-yl)hept-6-enoic acid, C=CCCCC(CCCC=C)(N[*:1])C(=O)[*:2]; Me2Asn = listed as N4-methyl-L-asparagine, CNC(=O)C[C@H](N[*:1])C(=O)[*:2]; MeAsn = N4-methyl-L-asparagine, CNC(=O)C[C@H](N[*:1])C(=O)[*:2]; Phe(F5) = N[C@@H](Cc1c(F)c(F)c(F)c(F)c1F)C(=O)O; Phe(3-COOH) = N[C@@H](Cc1cccc(C(=O)O)c1)C(=O)O; Phe(2-CF3) = N[C@@H](Cc1ccccc1C(F)(F)F)C(=O)O; Phe(2-Cl) = N[C@@H](Cc1ccccc1Cl)C(=O)O; Bta = N[C@@H](Cc1csc2ccccc12)C(=O)O; Isobutyloxycarbonyl = CC(C)COC(=O)*; hTyr = N[C@@H](CCc1ccc(O)cc1)C(=O)O; αAllylPro = C=CC[C@@]1(C(=O)O)CCCN1; tBuAla = CC(C)(C)C[C@H](N)C(=O)O; 3Thi = N[C@@H](Cc1ccsc1)C(=O)O; Butoxycarbonyl = CCCCOC(=O)*; R5 = C=CCCC[C@@](C)(N)C(=O)O; S5 = C=CCCC[C@](C)(N)C(=O)O; 4ClBztA = not defined here; hSer = N[C@@H](CCO)C(=O)O; Ac5c = NC1(C(=O)O)CCCC1; Ac3c = NC1(C(=O)O)CC1; Aib = CC(C)(N)C(=O)O; Moc = COC(=O)*
B1: I-2362 (peptide)
peptide: Moc-[αAllylPro]D[tBuAla][B5(4)]DDAAFQ[PyrS2″][3Thi][Bta]H-NH2
modifications: staple 1-4, 4-11
B2: I-1621 (peptide)
peptide: Ac-[αAllylPro]D[tBuAla][B5(4)]NTAAFT[PyrS2″][3Thi][Bta]Q-NH2
modifications: staple 1-4, 4-11
B3: I-1793 (peptide)
peptide: Ac-[αAllylPro]D[tBuAla][B5(19)]DHAAF[hSer][PyrS2][3Thi][Bta]Q-NH2
modifications: staple 1-4, 4-11; not fully specified; printed as Ac-PL3-Asp-Npg-B5-Asp-His-Ala-Ala-Phe-Hse-PyrS2-3Thi-BztA-Gln-NH2
B4: I-2364 (peptide)
peptide: Isobutyloxycarbonyl-[αAllylPro]D[tBuAla][B5(4)]DDAAFQ[PyrS2″][3Thi][Bta]H-NH2
modifications: staple 1-4, 4-11
B5: I-1791 (peptide)
peptide: Ac-[αAllylPro]D[tBuAla][B5(19)]D[Phe(F5)]AAF[hSer][PyrS2][3Thi][Bta]Q-NH2
modifications: staple 1-4, 4-11
B6: I-1781 (peptide)
peptide: Ac-[αAllylPro]D[tBuAla][S5]DD[Aib]AF[R5]A[3Thi][Bta][S5]A-NH2
modifications: staple (positions not given here); not fully specified; printed as Ac-PL3-Asp-Npg-S5-Asp-Asp-Aib-Ala-Phe-R5-Ala-3Thi-BztA-S5-Ala-NH2; also: staple pairing among PL3 1, S5 4, R5 10, S5 14 not given here
B7: I-1786 (peptide)
peptide: Ac-[αAllylPro]D[tBuAla][B5(19)]D[hTyr]AAF[hSer][PyrS2][3Thi][Bta]Q-NH2
modifications: staple 1-4, 4-11
B8: I-2363 (peptide)
peptide: Butoxycarbonyl-[αAllylPro]D[tBuAla][B5(4)]DDAAFQ[PyrS2″][3Thi][Bta]H-NH2
modifications: staple 1-4, 4-11
B9: I-1789 (peptide)
peptide: Ac-[αAllylPro]D[tBuAla][B5(19)]DWAAF[hSer][PyrS2][3Thi][Bta]Q-NH2
modifications: staple 1-4, 4-11
B10: I-1788 (peptide)
peptide: Ac-[αAllylPro]D[tBuAla][B5(19)]DWAAFN[PyrS2][3Thi][Bta]Q-NH2
modifications: staple 1-4, 4-11
B11: I-2377 (peptide)
peptide: {3‑(allyloxy)benzoyl}-PD[tBuAla][B5(5)]D[TfeGA]AAFL[PyrS2″][3Thi][Bta]Q-NH2
modifications: staple 4-11, N-4; also: -CH=CH- in each staple reduced to -CH2-CH2-
B12: I-1783 (peptide)
peptide: Ac-[αAllylPro]D[tBuAla][B5(19)]DYAAF[hSer][PyrS2][3Thi][Bta]Q-NH2
modifications: staple 1-4, 4-11
B13: I-1792 (peptide)
peptide: Ac-[αAllylPro]D[tBuAla][B5(19)]D[Phe(F5)]AAFL[PyrS2][3Thi][Bta]Q-NH2
modifications: staple 1-4, 4-11
B14: I-1784 (peptide)
peptide: Ac-[αAllylPro]D[tBuAla][B5(19)]DYAAFL[PyrS2][3Thi][Bta]Q-NH2
modifications: staple 1-4, 4-11
B15: I-1778 (peptide)
peptide: Ac-[αAllylPro]D[tBuAla][S5]DDAAF[R5]A[3Thi][Bta][S5]A-NH2
modifications: staple (positions not given here); not fully specified; printed as Ac-PL3-Asp-Npg-S5-Asp-Asp-Ala-Ala-Phe-R5-Ala-3Thi-BztA-S5-Ala-NH2; also: staple pairing among PL3 1, S5 4, R5 10, S5 14 not given here
B16: I-1794 (peptide)
peptide: Ac-[αAllylPro]D[tBuAla][B5(3)]DHAAF[hSer][PyrS2″][3Thi][Bta]Q-NH2
modifications: staple 1-4, 4-11; not fully specified; printed as Ac-PL3-Asp-Npg-B5-Asp-His-Ala-Ala-Phe-Hse-PyrS2-3Thi-BztA-Gln-NH2
B17: I-1780 (peptide)
peptide: Ac-[αAllylPro]D[tBuAla][S5]DD[Aib]AF[R5]A[3Thi][Bta][S5]A-NH2
modifications: staple (positions not given here); not fully specified; printed as Ac-PL3-Asp-Npg-S5-Asp-Asp-Aib-Ala-Phe-R5-Ala-3Thi-BztA-S5-Ala-NH2; also: staple pairing among PL3 1, S5 4, R5 10, S5 14 not given here
B18: I-1857 (peptide)
peptide: Ac-[αAllylPro]D[tBuAla][B5(5)]D[TfeGA]AA[(CH2Ppz)TriAzDap]L[PyrS2″][3Thi][Bta]Q-NH2
modifications: staple 1-4, 4-11; also: separately listed staple isomer composition
B19: I-1852 (peptide)
peptide: Ac-[αAllylPro]D[tBuAla][B5(18)]D[Phe(3-COOH)]AAFL[PyrS2(3)][Phe(2-Cl)][Bta]-NH2
modifications: staple 1-4, 4-11
B20: I-1859 (peptide)
peptide: Ac-[αAllylPro]D[tBuAla][B5(5)]D[TfeGA]AA[(MorphCH2)TriAzDap]L[PyrS2″][3Thi][Bta]Q-NH2
modifications: staple 1-4, 4-11; also: separately listed staple isomer composition
B21: I-1850 (peptide)
peptide: Ac-[αAllylPro]D[tBuAla][B5(18)]D[Phe(3-COOH)]AAFV[PyrS2(3)][Phe(2-Cl)][Bta]S-NH2
modifications: staple 1-4, 4-11
B22: I-2494 (peptide)
peptide: Ac-[αAllylPro]D[tBuAla][B5]NT[Aib]AFN[PyrS2][3Thi][Bta][Me2Asn]-NH2
modifications: staple 1-4, 4-11
B23: I-1858 (peptide)
peptide: Ac-[αAllylPro]D[tBuAla][B5(5)]D[TfeGA]AA[(MorphCH2)TriAzDap]L[PyrS2″][3Thi][Bta]Q-NH2
modifications: staple 1-4, 4-11; also: separately listed staple isomer composition
B24: I-2493 (peptide)
peptide: Ac-[αAllylPro]D[tBuAla][B5(4)]NT[Ac5c]AFN[PyrS2″][3Thi][Bta]Q-NH2
modifications: staple 1-4, 4-11
B25: I-2489 (peptide)
peptide: Ac-[αAllylPro]D[tBuAla][B5(4)]D[Phe(3-COOH)]QAFL[PyrS2″][Phe(2-CF3)][7FBztA]A-NH2
modifications: staple 1-4, 4-11
B26: I-2495 (peptide)
peptide: Ac-[αAllylPro]D[tBuAla][B5]NT[Aib]AFN[PyrS2][3Thi][Bta][MeAsn]-NH2
modifications: staple 1-4, 4-11
B27: I-2487 (peptide)
peptide: Ac-[αAllylPro]D[tBuAla][B5(4)]D[Phe(3-COOH)]QAFL[PyrS2″][Phe(2-CF3)][7ClBztA]A-NH2
modifications: staple 1-4, 4-11
B28: I-2492 (peptide)
peptide: Ac-[αAllylPro]D[tBuAla][B5(4)]NT[Ac3c]AFN[PyrS2″][3Thi][Bta]Q-NH2
modifications: staple 1-4, 4-11
B29: I-1851 (peptide)
peptide: Ac-[αAllylPro]D[tBuAla][B5(18)]D[Phe(3-COOH)]AAFL[PyrS2(3)][Phe(2-Cl)][Bta]A-NH2
modifications: staple 1-4, 4-11
B30: I-1853 (peptide)
peptide: Ac-[αAllylPro]N[tBuAla][B5(18)]D[Phe(3-COOH)]AAFL[PyrS2(3)][Phe(2-Cl)][Bta]S-NH2
modifications: staple 1-4, 4-11
B31: I-1855 (peptide)
peptide: Ac-[αAllylPro]D[tBuAla][B5(5)]D[TfeGA]AA[(CH2NMe2)TriAzDap]L[PyrS2″][3Thi][Bta]Q-NH2
modifications: staple 1-4, 4-11; also: separately listed staple isomer composition
B32: I-2491 (peptide)
peptide: Ac-[αAllylPro]D[tBuAla][B5(4)]D[Phe(3-COOH)]QAFL[PyrS2″][Phe(2-CF3)][4ClBztA]A-NH2
modifications: staple 1-4, 4-11; reading uncertain
B33: I-1860 (peptide)
peptide: Ac-[αAllylPro]D[tBuAla][B5(5)]D[TfeGA]AA[(SO2MorphCH2)TriAzDap]L[PyrS2″][3Thi][Bta]Q-NH2
modifications: staple 1-4, 4-11
B34: I-1849 (peptide)
peptide: Ac-[αAllylPro]D[tBuAla][B5(18)]D[Phe(3-COOH)]AAFA[PyrS2(3)][Phe(2-Cl)][Bta]S-NH2
modifications: staple 1-4, 4-11

Target: full-length beta-Catenin (Uniprot ID P35222) (Homo sapiens (Human)) (UniProt P35222)
Assay: fluorescence polarization competition against 5FAM-TCF4 10-53 on full-length beta-catenin

IC50 | Binder
66 nM | B1
266 nM | B2
20 nM | B3
116 nM | B4
182 nM | B5
8450 nM | B6
42 nM | B7
44 nM | B8
183 nM | B9
58 nM | B10
978 nM | B11
101 nM | B12
935 nM | B13
528 nM | B14
2080 nM | B15
52 nM | B16
4190 nM | B17

Target: full-length beta-Catenin (Uniprot ID P35222) (Homo sapiens (Human)) (UniProt P35222)
Assay: fluorescence polarization competition; 10 nM full-length beta-catenin, competitor 10 nM 5FAM-TCF4(10-53)
Target sequence in this assay (P35222 whole entry): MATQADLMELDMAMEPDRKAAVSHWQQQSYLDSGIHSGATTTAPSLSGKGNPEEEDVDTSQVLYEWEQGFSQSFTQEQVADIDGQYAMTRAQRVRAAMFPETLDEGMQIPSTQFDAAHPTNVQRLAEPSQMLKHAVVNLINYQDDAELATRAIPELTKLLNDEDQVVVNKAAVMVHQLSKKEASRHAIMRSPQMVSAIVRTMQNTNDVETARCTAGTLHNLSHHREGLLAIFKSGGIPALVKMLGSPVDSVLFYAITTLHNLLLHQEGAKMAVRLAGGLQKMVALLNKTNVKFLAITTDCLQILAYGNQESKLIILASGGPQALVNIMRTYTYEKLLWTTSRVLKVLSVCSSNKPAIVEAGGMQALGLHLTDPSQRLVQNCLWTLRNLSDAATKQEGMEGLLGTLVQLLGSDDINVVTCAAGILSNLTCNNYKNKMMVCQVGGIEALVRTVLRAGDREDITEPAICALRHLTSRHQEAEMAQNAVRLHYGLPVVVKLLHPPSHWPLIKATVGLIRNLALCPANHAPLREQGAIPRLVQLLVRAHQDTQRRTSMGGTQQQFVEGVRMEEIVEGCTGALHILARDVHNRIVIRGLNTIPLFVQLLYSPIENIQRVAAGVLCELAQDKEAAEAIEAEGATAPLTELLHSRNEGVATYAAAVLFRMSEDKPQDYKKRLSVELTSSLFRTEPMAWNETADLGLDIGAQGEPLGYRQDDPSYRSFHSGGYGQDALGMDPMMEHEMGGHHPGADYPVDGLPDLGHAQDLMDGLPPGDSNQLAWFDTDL

IC50 | Binder
4020 nM | B18
48 nM | B19
1110 nM | B20
17 nM | B21
102 nM | B22
1110 nM | B23
267 nM | B24
29 nM | B25
95 nM | B26
36 nM | B27
174 nM | B28
25 nM | B29
114 nM | B30
849 nM | B31
49 nM | B32
512 nM | B33
19 nM | B34

— patent publication US20240116985A1, “STAPLED PEPTIDES AND METHODS THEREOF” (priority 2020, published 2024)
